{"source": "patent US20050059132A1", "molecules": {"B1": {"name": "human wild-type activated protein C (protein)", "chain 1": "ANSFLEELRHSSLERECIEEICDFEEAKEIFQNVDDTLAFWSKHVDGDQCLVLPLEHPCASLCCGHGTCIDGIGSFSCDCRSGWEGRFCQREVSFLNCSLDNGGCTHYCLEEVGWRRCSCAPGYKLGDDLLQCHPAVKFPCGRPWKRMEKKRSHL", "chain 2": "LIDGKMTRRGDSPWQVVLLDSKKKLACGAVLIHPSWVLTAAHCMDESKKLLVRLGEYDLRRWEKWELDLDIKEVFVHPNYSKSTTDNDIALLHLAQPATLSQTIVPICLPDSGLAERELNQAGQETLVTGWGYHSSREKEAKRNRTFVLNFIKIPVVPHNECSEVMSNMVSENMLCAGILGDRQDACEGDSGGPMVASFHGTWFLVGLVSWGEGCGLLHNYGVYTKVSRYLDWIHGHIRDKEAPQKSWAP"}}, "key": {"[1]": {"target": "APC mutant QGNSEDY (ALL) (human) (UniProt P04070)", "experiment": "cell-based or functional assay"}, "[2]": {"target": "human wild-type activated protein C (human) (UniProt P04070)", "experiment": "cell-based or functional assay"}, "[3]": {"target": "R506Q FVa (FVa Leiden, activated FV:Q506), P12259", "sequence (P12259 29-2224 R534Q)": "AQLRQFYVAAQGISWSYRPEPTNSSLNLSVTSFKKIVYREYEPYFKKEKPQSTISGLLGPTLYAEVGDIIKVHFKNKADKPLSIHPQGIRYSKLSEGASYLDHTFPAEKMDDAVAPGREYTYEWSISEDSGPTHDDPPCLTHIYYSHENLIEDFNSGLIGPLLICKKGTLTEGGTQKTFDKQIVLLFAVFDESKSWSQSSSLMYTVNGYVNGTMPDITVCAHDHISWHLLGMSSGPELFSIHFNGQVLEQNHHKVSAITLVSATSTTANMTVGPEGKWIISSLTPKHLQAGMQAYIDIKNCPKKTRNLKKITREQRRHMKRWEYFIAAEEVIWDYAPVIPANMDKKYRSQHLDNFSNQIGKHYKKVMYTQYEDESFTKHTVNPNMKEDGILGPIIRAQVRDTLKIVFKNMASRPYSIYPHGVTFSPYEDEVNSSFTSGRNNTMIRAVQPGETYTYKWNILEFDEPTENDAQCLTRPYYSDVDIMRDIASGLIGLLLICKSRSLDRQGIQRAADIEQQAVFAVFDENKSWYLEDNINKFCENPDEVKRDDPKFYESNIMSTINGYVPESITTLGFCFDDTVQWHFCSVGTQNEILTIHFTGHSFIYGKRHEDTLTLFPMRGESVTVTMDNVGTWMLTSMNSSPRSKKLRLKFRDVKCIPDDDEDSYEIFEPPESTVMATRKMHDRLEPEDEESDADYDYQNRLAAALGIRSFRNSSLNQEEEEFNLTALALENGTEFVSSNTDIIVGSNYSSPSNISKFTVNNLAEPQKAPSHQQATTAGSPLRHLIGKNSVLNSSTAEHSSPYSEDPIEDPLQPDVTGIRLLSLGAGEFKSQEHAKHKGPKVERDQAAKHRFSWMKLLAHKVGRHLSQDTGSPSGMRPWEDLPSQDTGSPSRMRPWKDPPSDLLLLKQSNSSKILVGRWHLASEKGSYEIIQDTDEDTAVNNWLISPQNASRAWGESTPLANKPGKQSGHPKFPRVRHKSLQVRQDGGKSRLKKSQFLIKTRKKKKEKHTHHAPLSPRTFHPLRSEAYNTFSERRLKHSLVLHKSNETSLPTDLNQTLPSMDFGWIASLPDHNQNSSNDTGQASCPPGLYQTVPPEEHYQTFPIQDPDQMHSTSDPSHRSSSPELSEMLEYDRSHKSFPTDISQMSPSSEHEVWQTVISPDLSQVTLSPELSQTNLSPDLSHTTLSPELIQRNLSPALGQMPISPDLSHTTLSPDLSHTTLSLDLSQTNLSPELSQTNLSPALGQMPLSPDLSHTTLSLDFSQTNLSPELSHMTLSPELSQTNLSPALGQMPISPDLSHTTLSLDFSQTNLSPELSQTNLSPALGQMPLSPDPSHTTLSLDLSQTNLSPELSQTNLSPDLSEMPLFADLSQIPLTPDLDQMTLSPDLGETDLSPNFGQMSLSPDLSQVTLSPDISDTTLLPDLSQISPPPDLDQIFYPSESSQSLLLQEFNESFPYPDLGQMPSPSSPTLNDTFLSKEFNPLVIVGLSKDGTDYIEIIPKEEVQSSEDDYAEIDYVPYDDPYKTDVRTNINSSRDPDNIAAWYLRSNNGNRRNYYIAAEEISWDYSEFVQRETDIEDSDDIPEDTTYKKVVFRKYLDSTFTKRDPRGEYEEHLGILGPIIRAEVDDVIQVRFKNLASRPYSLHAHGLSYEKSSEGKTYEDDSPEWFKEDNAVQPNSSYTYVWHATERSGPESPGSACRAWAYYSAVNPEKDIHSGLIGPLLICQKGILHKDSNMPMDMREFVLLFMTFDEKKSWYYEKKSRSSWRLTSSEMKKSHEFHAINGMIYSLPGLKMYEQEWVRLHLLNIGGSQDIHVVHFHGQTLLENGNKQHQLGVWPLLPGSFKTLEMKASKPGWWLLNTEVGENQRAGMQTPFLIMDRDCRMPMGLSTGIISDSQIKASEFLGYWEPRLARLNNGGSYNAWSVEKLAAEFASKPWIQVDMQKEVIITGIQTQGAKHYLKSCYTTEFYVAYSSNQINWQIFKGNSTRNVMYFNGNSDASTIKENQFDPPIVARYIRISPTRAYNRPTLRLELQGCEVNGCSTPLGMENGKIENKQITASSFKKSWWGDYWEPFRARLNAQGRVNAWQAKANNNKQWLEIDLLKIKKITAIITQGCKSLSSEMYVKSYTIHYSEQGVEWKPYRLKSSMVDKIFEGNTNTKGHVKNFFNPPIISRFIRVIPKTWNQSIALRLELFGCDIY"}, "[4]": {"target": "human plasma factor Va (normal, wild-type), P12259", "sequence (P12259 29-2224)": "as the sequence (P12259 29-2224 R534Q) above, with Q506R counted along it"}}}
{"molecule": "human protein S (from UniProt P07225 42-676)", "values": [{"measurement": "APTT clotting time in protein S deficient plasma with 20 nM APC, in absence of protein S", "setting": "[1]", "result": 160, "unit": "s"}, {"measurement": "APTT clotting time in protein S deficient plasma with 20 nM APC, with protein S added", "setting": "[1]", "result": 350, "unit": "s"}, {"measurement": "APTT clotting time in protein S deficient plasma with 20 nM APC, at the highest protein S concentration", "setting": "[2]", "result": 150, "unit": "s"}, {"measurement": "APTT clotting time in protein S deficient plasma with 20 nM APC, in absence of protein S", "setting": "[2]", "result": 100, "unit": "s"}]}
{"molecule": "B1", "values": [{"measurement": "remaining FVa activity over time on incubation with 0.4 nM APC", "setting": "[3]", "result": "a slow decrease in FVa activity"}, {"measurement": "loss of FVa activity over time (FXa-mediated prothrombin activation assay) on incubation of 0.76 nM FVa with 0.39 nM APC", "setting": "[4]", "result": "the initial rapid loss of FVa activity that is observed during the first 5 minutes of incubation"}]}
